In the domain aggregation screens of Martell et al. (2025):

Assay: soluble fraction after stress (log2 fold change); higher = more stays soluble; pooled small domains, quantitative proteomics
Details: stress: 50 degC
Summary of the method: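 Custom libraries of small protein domains were pooled and measured in a high-throughput format, with quantitative proteomics as the read-out. Each library was stressed at 50°C. The value is the log2 fold change in the amount of each protein that stays soluble after stress, used as a measure of aggregation propensity; higher values mean more of the protein stays soluble.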

| Sequence | soluble fraction (log2) |
| --- | --- |
| HMRRDEDLAHGRELLEKELRKQGLEVSENLKQDKLLEGAKRLGFLEAEDLVVAVGSGKVSAGMAVGRIIG | 0.16 |
| HMRREKVLIKLAENLASKVLRTKKSIELEPMTPYERKVIHTTIENISGVKSWSEGENLQRHLIVALDE | -1.3 |
| HMRRGPLTPDDFVLDMRVVHPRYGVGRIVALSGSGESRKATVDFGGSIGRMKFVLSQSPLKP | -0.414 |
| HMRRHLLEMNDAIGRLGRLISEDPADRDVAEVIWAALRGMVMGQMIMNEPIDWQRERRTLVEMAIGR | 0.0146 |
| HMRRIADVVPEQLTREEAEELLETLAEQGEIHEEQALLARYILEQSLQGVAPEVEPLIRAKLLAGILMVY | -1.69 |
| HMRRKDIEFTNTMLEELYRHNSKWYDAVVRAYALEIPQKQIAEEMGIRLEAFQSMLFRAKKWIKTKYEADY | -2.51 |
| HMRRNLSGEDTIVNRMAQWQYTQEQKNELHKMMDAGMPQEDILSVFYPEIKAEEMHRFLLAFQTAHNSG | -0.162 |
| HMRRPRGVFNLVPRGFKRFGFITPDGGGEDMFAHLENVRAGHVVEDRNAVEYGIGRGPDGRDQAVDIVPVP | 0.049 |
| HMRRPTYPTVTTEAGMVVEDRSSGFVGDIVRWSFEGVTLRDRQQQLRHFTWKPGGFLINGTPVTLKRPE | -0.629 |
| HMRRRVIGTLVMGDMSTDFKVLADGHTHRVLAAAISFHKAKPGDEVVILVPKSAPSKWAAVEHVMK | 0.458 |
| HMRSAKLPYSEFLKLVDTDKVNDVSIVGRTISGHLDDGSKFSTYTPPNDPNIIEKLSSHNVIINSAPE | -0.0117 |
| HMRSASFDIMSQKQSDATLGYERVYDTETNEVYKAYNGFTDDYDGERYKSISDNMYTKGISGYIEK | 0.327 |
| HMRSDSEIKEDVLDELMWQPNIDETQIGVIVEKGVVTLTGFVDAYAKKTAALDAVKNVKGVKAVANDIEV | 0.131 |
| HMRSFGRLRRRDSGRWEAAYVGPDARLYRAPATFEAKDDAIAWLSAERRMIELDTWIKPHDRASR | -1.11 |
| HMRSGFAFSEEEIKHLDNIVSPLLIKGQSIHHISIFHKDEVMMSERTLYSYVNNGLFSARNIDMPRTVRMR | 0.14 |
| HMRSISVEMDGKEYLIPTVSENGKVLSDDDAVKQFKKTGKHLDVFDSPEDATAYARQLHEDQESFYA | 0.142 |
| HMRSKTDLVYEEIKKLILRGELSSDTPISENHLARRFEISRTPIREALKRLHIEGFVRIIPNHGVFVR | -0.343 |
| HMRSLAVGNVVSEEGKPSYLLLDSKRTMLFSENSIPSLYLEDGRRVIVNYTLLDEDYQGYDFRIHVNDIDT | -0.113 |
| HMRSNADALIGRTARVSQTIVENGFGRVALDGDDWKAQAADGSRIEEGQNVIVKDRDSIILTVEKE | 0.074 |
| HMRSNIYTEEKLWTVLQDFFQENRYLTISLMRMKFGLSRHMAQKWIDHFIAKGLLVKDGTPRSPIYFLND | -2.3 |
| HMRSNQKVSQIAISQVLPGMVTAKNVYSRNDQLILNRETTLDSTKIAKIMFYAIESIYVYEPE | -1.9 |
| HMRSPVDALSNRELQVLQMVGRGLSSRQVAEALHLSVKTVEAHRQRIKGKLGLRTGAQLVQFAANWVTG | -1.27 |
| HMRSREGVRWIIRERIMEELQERHHMDDGELLEMIDRSIGEMGQEIFLPLKERIWLRGSLFDSFR | -3.1 |

| Sequence | soluble fraction (log2) |
| --- | --- |
| HMRSWRDQRVDDLLAAVSELGMTMSRAAAGDLLDQRVEYVANQMRVTPATARKYLTEETLAGMAREIVFG | -0.693 |
| HMRTAFPQLTERELEILDLIAAGRNNAQIASALYLAPKTVRNNVSNILAKLQATDRAEAIIRARDAGLGG | -0.0599 |
| HMRTAKEVFYKELKGYMQNGDELSVKKIYSLFPEINPKTVSWRLHELVQHGKIHRTGHGYYALTQ | -1.07 |
| HMRTDTIINSGGLKINPEEVENEILKSLGDNNFFIDKIKNDKFGEEIILIALKKIKINLLIESLNLI | 0.0394 |
| HMRTFFEIEQLKAYVGEEIQVKFEADSHKQTVLGKLISISEDFIEIENSKKGNLKISLDNYLTSKLIY | -1.6 |
| HMRTGSSVLVGLVAPVRLGATGAPKVFADGALWEARSAVPLNDGQLVEITGTDGLTVLVKPSA | 0.0494 |
| HMRTIVSELNDIKGISDASAKKLLIRYGSFEAVREAVMKHEEEFELDMGKRITGALTRYFYEE | -1.61 |
| HMRTKLEEAVEWLQEQLNDGPVLSKELESEAKAADILPGTLRRAGEALGVVKQKQGGRGGWTWSLPR | 0.14 |
| HMRTLGADLRALRKARGLTLAGMADNMGKSVGWMSQIERDISEPSISDLRALAKLLDVSVSSLFR | -2.23 |
| HMRTQEELVAEVREQMEAMGTIATLYVELYESSEERLVGGVIFEDERHYRFVYEDGLLHYEEEK | -0.206 |
| HMRTRSDVKRAAIIQAAKDAFQEYGVNATSMDKLAEMASVSKRTVYNHFSAKEELVMHIVKE | 0.166 |
| HMRTVPEALLGRAYETAETAIVLEGLEAKRTDVFHPTIGNGTVIRLEPASGSQVSAGGVIEIFVSKGTETI | -0.305 |
| HMRVDYKTQLQELLQRQGAAAPQYRLLVEEGPAHLRRFQVGVYFQGRLLGTGWGRNKKEAEQEAARQALMP | -0.494 |
| HMRVEEVGYGEFLQMAEERDLAEVQVTDTEIIFSDKDTPPNYYKTGRMDDPFLVDRLYSAGIRDFGE | -0.298 |
| HMRVESVGDRIRRLRKSLGLTQVKLAQMLGIKAPSVVQWESDKTNLSGENLLNAAKLFGVTPDYILYGG | -0.0657 |
| HMRVLEYTADGSRLDVLLSQDGVLSRSRAAELIKGGAVTVDGRAEGKPSAKPAPGALVRVEVPE | -0.01 |
| HMRVVGRNHYDDADLAHIRSVIQLEARPLNVSRIARTLANEYPKHTYWSYLSFLQKNLRDRPDLF | -1.83 |
| HMRVVPEILERAVAVFEALGVDRLPSSTLADRLGYDSPEALADVLRPLGVRPKKYRDGKSTARGYLAADLG | -0.473 |
| HMRYEESVTLGERLLNQSLVALKADNIDDALWERFLREEAGEKSRQEILSDIGLGKRLPVVVAKRLLAPS | 0.0281 |
| HMRYPLPYAFARSQQLLLEETDDGRYTLWMSSHPARSAVGEVSRKYGVQTFEVLADGPLAQRISAAYAQ | -1.37 |
| HMRYTAAEMAKKLDISRSYLYYLKEAGVVEIEKNENGKPIWTESVYNQLFEYIKKNHRTEEADNTQ | -0.578 |
| HMSAAIGEAVIATDEINVRSGPGLSHEIVSVVSRNESYPILEERGDWVQIQLNGGQKGWVVSWLIKKKS | 0.169 |
| HMSAAMTESVLDGIPGLGATRKAALLAHFGSVRKLRAATSEQVREVPGIGPRLAETILATLHEP | -0.181 |

| Sequence | soluble fraction (log2) |
| --- | --- |
| HMSAATGIINTDNVNIRSGPATTYDAVGRLNQGSSVEILSSRNDWYQIQANSLKGWVRNDLLNVQK | 0.0404 |
| HMSADDLVSRTQAIVAELKDLEGPLLPILHSVQEAFGHVPDEVKPVIAEALNLSRAEVHGVVSFYHDFRAH | -0.112 |
| HMSADIGAEKAKTIALNHAGVSASNAVFLHAKLDYDDGRRTYEVEFYSGSKEYDYEIDAATGEILSYDFD | -0.777 |
| HMSAEAYLSFVKKENLRAAVVNYENNKEWLKDVPHERLLDLAVFAKVDMGEPGMSMKFNNWLLSR | -0.78 |
| HMSAEKDGEWLTLTEAAKHLQVSPHVIRRLIQTGALPAEQVMRGAPHQIRAADLDTDRVKTMIAR | 0.193 |
| HMSAEKPVKSELFYKSMLNSFEQAVRFMIANGILEDFKSRIVAINNETNHQNWFNKQEFNAIIERF | -0.449 |
| HMSAERFDFRIGPELAGKRFDQALAEALPQFSRSRLSTWIKDGRATLNGATMRPKDSVHAGDTVVVNAE | 0.126 |
| HMSAEVEVPDVVGRQVALAVQLIETKKLRVNVAETYDAKVPPGQVISQSPEAGMKVKEERVITIYVSR | -0.167 |
| HMSAGISVADVTNRTYDEGYNTLTAQHLLVNKVYEANETIPLDTIIRTDPVAGTKVPDNTSITVYVSSGK | 0.000832 |
| HMSAGPQGRTPREDELTVGTKVYVSRVGASGVVSSDVSRGKVVVQVGALRLTAAVSELLLLDG | 0.151 |
| HMSAGYTYQNYQQDLKSGNVQNIHIYLSEEMYSGNVKVIYKNNKSVTFTVTDVTIAEAEARQVGISPIIYE | -0.1 |
| HMSAHDLQVVLRWIGTDEPMTDQRYRITTEDGRTFEGRTDDAGLTERVASTIPFGRYSIEALD | -0.441 |
| HMSAIEIDAEKILNYLTDRGGKMPYGDTTAPEVIKDKFNISKAAFKRALGFLLRSNKIEQIDGWTYI | -0.317 |
| HMSAIKSVTTQLDNTKLRTGPDVSYQYTQSYPANTKLTYINKSGTWYQVKDADGNTGYVASWVVTPSE | 0.236 |
| HMSALIGAHTLERIDSRDFEGVVMAWLPKRDGYDSLYKIYHIEDGDFEELDDREVQAAISLFIEGT | -0.431 |
| HMSAPAMTLDSIRSLLNDRDPWVVTQTVEWLVGLGPQVKTILETLTLESSDAARQAQNALDRINVRNYP | -0.155 |
| HMSAPNPGQMHSWTDTQGRTLQATFIKADATTVTLNWNGRIVPIPLANLNAASQKLARELASAS | 0.181 |
| HMSAPRRGETTAASLNLRAGPATDADILAQLPERTPLRVLQEDGEWLRVETHGNEGFVHRQFVAIPGDEP | 0.218 |
| HMSARRHAVKHLDANQLQTRVARMLSEFGLTAKVSKDPNSNALIIDGAPEAQRIAAQLITTIDKE | 0.091 |
| HMSASSDATRQRVLRAAEQLFGAKGVENVSLREMTTLAGVNLAAVNYHFGSKDALAEAVFEALSER | 0.41 |
| HMSASSEALKTAVRKVLLNNRMTQDRMARDAGLSGSALSQWLHGKYQGDVPALEGRLAAWLADTQAS | 0.0546 |
| HMSASSTAPGSVTLRGAILTAWTAAGGERSKMGLPVGYEVRQADGTVTQTFEKGRISVSPTGTATI | 0.0647 |
| HMSAVNLNDDEKAVYKSIKSGIRSLDELSLRTGMKIYELMAITVSLEMKGLVTKSPDGTLDAT | 0.147 |
